Test [1] concerns the target PhoP-HA protein, purified (Salmonella enterica serovar Typhimurium (strain 14028s)) (UniProt D0ZV90). Kind of test: pull-down.
Test [2] deals with T1, PhoP-HA protein, purified (Salmonella enterica serovar Typhimurium …, UniProt D0ZV90 1-224).
T1 sequence: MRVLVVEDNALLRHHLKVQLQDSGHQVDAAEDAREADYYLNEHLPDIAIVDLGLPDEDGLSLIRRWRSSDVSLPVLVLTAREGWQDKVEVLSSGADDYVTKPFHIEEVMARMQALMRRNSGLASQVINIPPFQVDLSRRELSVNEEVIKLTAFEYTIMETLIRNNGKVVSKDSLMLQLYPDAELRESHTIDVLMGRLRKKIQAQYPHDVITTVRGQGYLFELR
Kind of test: pull-down.

For the molecule “ClpS-FLAG, in vitro synthesized (natural protein)”, the IC50 (usually the concentration that inhibits the measured activity by half) in test [1] was 14.6 µM.

B1: MgtC-FLAG, in vitro synthesized (natural protein)
chain: MEERMLMFPYILNLLAAMLLGALIGAERQWRQRMAGLRTNALVATGAAVFILSSMTTSPDSPGRIAAQIVSGIGFLGAGVIMREGMNVRGLNTAATLWCSAGIGVLCGLGQFKNALAATIIILCANILLREAAQRINQLPISAEGEKRYILKVTCNKEDESAVRQWLLNIVKEAAICLQGLGSVPAQEQGYKEIRAELVGHADYRKTRELIISRIGDNDNITAIHWSIDSQ
B1 came in with an IC50 in test [2] of 8.4 µM.

Source of the values: paper PMC5424706 (Molecular cell, 2017).
